From US20250060376A1 (PLASMARKER BIOTECHNOLOGY, published 2025)

T1: fragment DIR-II (last 27 amino acids of the sequence encoded by the retained intron of DIR) (human)
T1 construct: also called target fragment DIR-II
T1 peptide: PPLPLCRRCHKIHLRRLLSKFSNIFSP


Experiments:
[1] = target: T1, fragment DIR-II (last 27 amino acids of …); assay: ELISA, DIR-II coated; mAb (1 mg/mL) diluted 1:6k
Method: (§1) The binding activity of the above antibodies IR-II-1 to IR-II-10 to fragments DIR-II was detected. The method specifically comprises:
(§2) The target fragment DIR-II was coated on a 96-well plate using a coating buffer and blocked with a blocking buffer. […] Then, a secondary antibody with horseradish peroxidase (1:5k) was added and incubated at 37° C. After washing three times, an appropriate volume of TMB substrate solution was added, and the resulting mixture was incubated at 37° C. for a certain period of time, and then placed under a microplate reader to record the absorbance value of the sample at a wavelength of 450 nm.

[2] = target: T1, fragment DIR-II (last 27 amino acids of …); assay: ELISA, DIR-II coated; mAb (1 mg/mL) diluted 1:162k
Method: as §1, §2

[3] = target: T1, fragment DIR-II (last 27 amino acids of …); assay: ELISA, DIR-II coated; mAb (1 mg/mL) diluted 1:4374k
Method: as §1, §2

[4] = target: T1, fragment DIR-II (last 27 amino acids of …); assay: ELISA, DIR-II coated; mAb (1 mg/mL) diluted 1:486k
Method: as §1, §2

[5] = target: T1, fragment DIR-II (last 27 amino acids of …); assay: ELISA, DIR-II coated; mAb (1 mg/mL) diluted 1:2k
Method: as §1, §2

[6] = target: T1, fragment DIR-II (last 27 amino acids of …); assay: ELISA, DIR-II coated; mAb (1 mg/mL) diluted 1:18k
Method: as §1, §2

[7] = target: T1, fragment DIR-II (last 27 amino acids of …); assay: ELISA, DIR-II coated; mAb (1 mg/mL) diluted 1:1458k
Method: as §1, §2

[8] = target: T1, fragment DIR-II (last 27 amino acids of …); assay: ELISA, DIR-II coated; mAb (1 mg/mL) diluted 1:54k
Method: as §1, §2

Binder	absorbance at 450 nm [1]	absorbance at 450 nm [2]	absorbance at 450 nm [3]	absorbance at 450 nm [4]	absorbance at 450 nm [5]	absorbance at 450 nm [6]	absorbance at 450 nm [7]	absorbance at 450 nm [8]
DIR antibody IR-II-3 (antibody, V domains shown, Monoclonal antibody) VH: EVQLQQSGAELMKPGASVKISCKATGYTFSNYWIEWIKQRPGHGLEWIGEILPGSYYSTNYNEKFKGKATFTADTSSNTAYIQLSSLTSEDSAVYYCARSGMITTRGDYFAMDYWGQGTSVTVSS VL: not shown	3.05 absorbance (450 nm)	0.366 absorbance (450 nm)	0.153 absorbance (450 nm)	0.173 absorbance (450 nm)	3.05 absorbance (450 nm)	1.27 absorbance (450 nm)	0.166 absorbance (450 nm)	0.4 absorbance (450 nm)
DIR antibody IR-II-9 (antibody, V domains shown, Monoclonal antibody) VH: QVQLQQSGAELMKPGASVKISCKATGYTFSRYWIEWIKQRPGHGLEWIGEILPGSYYSTNSNEKFKGKATFTADTSSNTAYMQLSSLTSEDSAVYYCARSGVITTRGDYFAMDYWGHGTSVTVSS VL: DIELTQSPASLAVSLGQRATISCKASQSVDYDGESYMNWYQQKPGQPPKLLIYAASNLESGIPARFSGSGSGTDFTLNIHPVEEEDAATYYCQQSYDDPRAFGGGTKLEIK	3.27 absorbance (450 nm)	0.318 absorbance (450 nm)	0.193 absorbance (450 nm)	0.207 absorbance (450 nm)	3.11 absorbance (450 nm)	1.87 absorbance (450 nm)	0.169 absorbance (450 nm)	0.622 absorbance (450 nm)
DIR antibody IR-II-7 (antibody, V domains shown, Monoclonal antibody) VH: QVQLQQSGAELMKPGASVKISCKATGYTFSNYWIEWIKQRPGHGLEWIGEILPGSYYSTNYNEKFKDKATFTADTSSNTAYIQLSSLTSEDSAVYYCARSGIITTRGDYFAMDYWGQGTSVTVSS VL: DIVLTQSPASLAVSLGQRATISCKASQSVDYDGDSYMNWYQQKPGQPPKLLMYAASNLESGIPARFSGSGSGTDFTLNIHPVEEEDAATYYCQQSNEDPRTFGGGTKLEIK	2.98 absorbance (450 nm)	0.164 absorbance (450 nm)	0.0867 absorbance (450 nm)	0.121 absorbance (450 nm)	3.09 absorbance (450 nm)	1.16 absorbance (450 nm)	0.103 absorbance (450 nm)	0.35 absorbance (450 nm)
DIR antibody IR-II-1 (antibody, V domains shown, Monoclonal antibody) VH: QVQLKESGAELMKPGASVKISCKATGYTFSSYWIEWVKQRPGHGLEWIGEILPGSGTTNYNDKFKGKATFTADTSSNTAYMQLSNLTSEDSAVYYCARSYDGYYVFDYWGQGTTLTVSS VL: DIELTQSPASLAVSLGQRATISCKASQSVDYDGDSYMNWYQQKPGQPPKLLIYAASNLESGIPARFSGSGSGTDFTLNIHPVEEEDAATYYCQQSNEDPRTFGGGTKLEIK	2.98 absorbance (450 nm)	0.109 absorbance (450 nm)	0.0934 absorbance (450 nm)	0.0656 absorbance (450 nm)	3.14 absorbance (450 nm)	0.818 absorbance (450 nm)	0.0653 absorbance (450 nm)	0.264 absorbance (450 nm)
DIR antibody IR-II-4 (antibody, V domains shown, Monoclonal antibody) VH: QVQLQQSGAELMKPGASVKISCKATGYTFSSYWIEWVKQRPGHGLEWIGEILPGSGSTNYNEKFKGKATFTADTSSNTAYMQLNSLTSEDSAVYYCARTDDGYLSYFAMDYWGQGTSVTVSS VL: DILMTQTPASLAVSLGQRATISCKASQSVDYDGDSYMNWYQQKPGQPPKLLIYAASNLESGIPARFSGSGSGTDFTLNIHPVEEEDAATYYCQQSNEDPRTFGGGTKLEIK	1.77 absorbance (450 nm)	0.136 absorbance (450 nm)	0.0775 absorbance (450 nm)	0.0955 absorbance (450 nm)	3.3 absorbance (450 nm)	0.555 absorbance (450 nm)	0.0751 absorbance (450 nm)	0.186 absorbance (450 nm)
DIR antibody IR-II-8 (antibody, V domains shown, Monoclonal antibody) VH: QVQLQQSGAELMKPGASVKISCKATGYTFSNYWIEWVKQRPGHGLEWIGEILPGSGSTNYNEKFKGKATFTADTSSNTAYMQLSSLTSEDSAVYYCARSGMITTRGDYFAMDYWGQGTSVTVSS VL: DIELTQSPASLAVSLGQRATISCKASQSVDYDGESYMNWYQQKPGQPPKLLIYAASNLESGIPARFSGSGSGTDFTLNIHPVEEEDAATYYCQQSNDDPRTFGGGTKLEIK	0.87 absorbance (450 nm)	0.0911 absorbance (450 nm)	0.0887 absorbance (450 nm)	0.0864 absorbance (450 nm)	3.2 absorbance (450 nm)	0.257 absorbance (450 nm)	0.0906 absorbance (450 nm)	0.138 absorbance (450 nm)
DIR antibody IR-II-2 (antibody, V domains shown, Monoclonal antibody) VH: EVQLQQSGAELMKPGASVKISCKATGYTFSSYWIEWVKQRPGHGLEWIGEILPGSGTTNYNEKFKGKATFTVDTSSNTAYMQLSSLTSEDSAVYYCARSGVITARGDYYAMDYWGQGTSVTVSS VL: DIVMTQSPASLAVSLGQRATISCKASQSVDYDGDSYMNWYQQKPGQPPKLLIYAASNLDSGIPARFSGSGSGTDFTLNIHPVEEEDAATYYCQQSNEDPRTFGGGTKLEIK	1.62 absorbance (450 nm)	0.14 absorbance (450 nm)	0.115 absorbance (450 nm)	0.112 absorbance (450 nm)	3.23 absorbance (450 nm)	0.823 absorbance (450 nm)	0.0839 absorbance (450 nm)	0.193 absorbance (450 nm)
DIR antibody IR-II-5 (antibody, V domains shown, Monoclonal antibody) VH: QVQLQQSGAEVMKPGASVKISCKATGYTFSSYWIEWIKQRPGHGLEWIGEILPGGYNTNSNENFKGKATFTADTSSNTAYMQLSSLTSEDSAVYYCARSGMITTTGDYYAMDYWGQGTSVTVSS VL: DIELTQSPASLAVSLGQRATISCKASQSVDYDGESYMNWYQQKPGQPPKLLIYAASNLESGIPARFSGSGSGTDFTLNIHPVEEEDAATYYCQQSNDDPRTFGGGTKLEIK	1.31 absorbance (450 nm)	0.19 absorbance (450 nm)	0.0868 absorbance (450 nm)	0.285 absorbance (450 nm)	3.24 absorbance (450 nm)	0.387 absorbance (450 nm)	0.0911 absorbance (450 nm)	0.159 absorbance (450 nm)
DIR antibody IR-II-10 (A2D10) (antibody, V domains shown, Monoclonal antibody) VH: EVQLQQSGPELVKPGASVKISCKTSGYTFTEYTMHWVKQSHGKSLEWIGGIYPHNGGTNYNQKFKGKATLTVDKSSSTAYMELRSLTSEDSAVYYCTEDLTFDYWGQGTTLTVSS VL: DIQMTQTTSSLSASLGDRVTISCSASQDISNYLNWYQQKPDGTVKLLIYYTSSLHSGVPSRFSGSGSGTDYSLTISNLEPEDIATYHCLQYSKLPFTFGSGTKLEIK	0.472 absorbance (450 nm)	0.0517 absorbance (450 nm)	0.0427 absorbance (450 nm)	0.0517 absorbance (450 nm)	2.01 absorbance (450 nm)	0.142 absorbance (450 nm)	0.0501 absorbance (450 nm)	0.0783 absorbance (450 nm)
